FireProtDB (doi:10.1021/ja068849o)

B1: Outer membrane protein A, P0A910 (parent)
chain: MKKTAIAIAVALAGFATVAQAAPKDNTWYTGAKLGWSQYHDTGFINNNGPTHENQLGAGAFGGYQVNPYVGFEMGYDWLGRMPYKGSVENGAYKAQGVQLTAKLGYPITDDLDIYTRLGGMVWRADTKSNVYGKNHDTGVSPVFAGGVEYAITPEIATRLEYQWTNNIGDAHTIGTRPDNGMLSLGVSYRFGQGEAAPVVAPAPAPAPEVQTKHFTLKSDVLFNFNKATLKPEGQAALDQLYSQLSNLDPKDGSVVVLGYTDRIGSDAYNQGLSERRAQSVVDYLISKGIPADKISARGMGESNPVTGNTCDNVKQRAALIDCLAPDRRVEIEVKGIKDVVTQPQA

Variants of: B1
Settings: Escherichia coli (strain K12); pH 9.2; 37 °C; Urea; Fluorescence; Glycine 10 mM; reversible: Yes; structure 1QJP; whole UniProt chain shown

Variant	ddG of mutation (higher = less stable) [kcal/mol]	denaturant m value [kcal/mol/M]	denaturant midpoint (higher = more stable) [M]	unfolding free energy [kcal/mol]
W78A	2	2.4	3.1	7.3
Y189A	0.2	3.1	2.9	9.1
Y76A W78A	4.2	2.4	2.1	5.1
Y64A	3.8	2.2	2.6	5.5
W28A	3.6	1.9	3	5.7
W28A Y64A	6.4	1.9	1.6	2.9
Y150A	2.7	2.4	2.8	6.6
Y189A F191A	1.2	3.1	2.6	8.1
W164A	3.1	2.2	2.8	6.2
W36A	2	2.4	3.1	7.3
F144A Y162A	5.3	2.1	1.9	4
F144A Y162A W164A	6.8	2	1.2	2.5
Y162A W164A	5.7	2.2	1.6	3.6
Y76A	2.5	2.2	3.1	6.8
F144A W164A	3.9	2.3	2.4	5.4
F72A	1.2	2.3	3.5	8.1
F191A	2.4	2.3	3	6.9
